From US20190367586A1 come the findings set out here.

In the assay the target is RSV strain 18537 pre-fusion F (Ds-Cav1) (human respiratory syncytial virus subgroup B strain 18537) (UniProt P13843). As to the kind of experiment: ELISA, F protein coated.

One may read the EC50 as the concentration giving half of the maximal effect.

Chain of RSV strain 18537 pre-fusion F (Ds-Cav1) (human respiratory syncytial virus subgroup B strain 18537) (P13843 26-513): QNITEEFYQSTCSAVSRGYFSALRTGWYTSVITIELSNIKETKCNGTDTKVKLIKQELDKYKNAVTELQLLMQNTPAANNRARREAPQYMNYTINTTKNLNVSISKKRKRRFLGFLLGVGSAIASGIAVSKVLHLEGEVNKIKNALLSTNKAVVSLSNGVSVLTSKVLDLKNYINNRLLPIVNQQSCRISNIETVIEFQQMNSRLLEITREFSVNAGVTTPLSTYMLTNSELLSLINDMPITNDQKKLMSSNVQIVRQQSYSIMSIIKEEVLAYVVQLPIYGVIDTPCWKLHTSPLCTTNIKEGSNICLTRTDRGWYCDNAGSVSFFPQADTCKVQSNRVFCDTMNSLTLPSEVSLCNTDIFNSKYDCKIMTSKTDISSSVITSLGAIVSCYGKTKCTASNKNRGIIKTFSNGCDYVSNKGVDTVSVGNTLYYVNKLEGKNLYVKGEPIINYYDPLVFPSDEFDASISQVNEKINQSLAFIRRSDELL

palivizumab (antibody): the concentration for a half-maximal effect (EC50) worked out at 0.046 µg/mL.
Consider motavizumab (antibody), for which the EC50 is 0.022 µg/mL.
